Measured values as given in patent publication US20150147274A1 (CANCER RESEARCH TECHNOLOGY, published 2015).
Numbering of substitutions follows the chain as printed.

B1: 112_F12 (scFv)
scFv: QMQLVQSGAEVKKPGAPVKVSCKVSGYTFTDYYMHWVQQAPGKGLEWMGLVDPEDGETIYAEKFQGRVTITADTSTDTAYMELSSLRSEDTAVYYCATDATTPYWGMQWWGQGTLVTVSSLEGGGGSGGGGSGGGASDIQMTQSPSSLSASVGDRVTITCQASQDISNYLNWYQQKPGRAPKVLIYDASNLETGVPSRFSGSGSGTEFTLTISNLRPDDFATYYCQQGDSFPLTFGGGTKVEIK
notes: not shown: 6xHis/tri-FLAG tags
B2: 112_H4 (scFv)
scFv: B1 scFv with Q108W, W109K
notes: as for B1
B3: 111_E7 (scFv)
scFv: B1 scFv with Q108M, W109M
notes: as for B1
B4: 112_G7 (scFv)
scFv: B1 scFv with G106F, M107P, W109T
notes: as for B1
B5: 111_E10 (scFv)
scFv: B1 scFv with G106Y, M107P, Q108Y, W109A
notes: as for B1
B6: 112_H7 (scFv)
scFv: B1 scFv with M107V, W109S
notes: as for B1
B7: 111_E8 (scFv)
scFv: B1 scFv with G106F, M107P, Q108Y, W109R
notes: as for B1
B8: 112_G11 (scFv)
scFv: B1 scFv with G106F, M107P, Q108Y, W109T
notes: as for B1
B9: 112_F4 (scFv)
scFv: B1 scFv with Q108A, W109D
notes: as for B1
B10: 112_G4 (scFv)
scFv: B1 scFv with M107A, W109S
notes: as for B1
B11: 112_H1 (scFv)
scFv: B1 scFv with M107A, Q108A, W109V
notes: as for B1
B12: 112_H10 (scFv)
scFv: B1 scFv with M107I, Q108R, W109K
notes: as for B1
B13: 112_G6 (scFv)
scFv: B1 scFv with G106F, M107P, Q108F, W109V
notes: as for B1
B14: 112_H9 (scFv)
scFv: B1 scFv with G106F, M107P, Q108Y, W109S
notes: as for B1
B15: 112_G3 (scFv)
scFv: B1 scFv with Q108S, W109A
notes: as for B1
B16: 112_G5 (scFv)
scFv: B1 scFv with Q108R, W109S
notes: as for B1
B17: 112_H6 (scFv)
scFv: B1 scFv with Q108M, W109E
notes: as for B1
B18: 111_E11 (scFv)
scFv: B1 scFv with Q108R, W109E
notes: as for B1
B19: 111_E12 (scFv)
scFv: B1 scFv with G106S, M107P, Q108W, W109V
notes: as for B1
B20: 112_G9 (scFv)
scFv: B1 scFv with W109R
notes: as for B1
B21: 112_H11 (scFv)
scFv: B1 scFv with G106F, M107P, W109V
notes: as for B1
B22: 112_F1 (scFv)
scFv: B1 scFv with Q108A, W109R
notes: as for B1
B23: 112_H12 (scFv)
scFv: B1 scFv with G106F, M107P, Q108Y, W109K
notes: as for B1
B24: 112_H5 (scFv)
scFv: B1 scFv with W109A
notes: as for B1
B25: 112_H8 (scFv)
scFv: B1 scFv with G106L, M107P, Q108L, W109Y
notes: as for B1
B26: 112_F11 (scFv)
scFv: B1 scFv with Q108M, W109Q
notes: as for B1
B27: 112_F8 (scFv)
scFv: B1 scFv with G106T, M107P, Q108F, W109L
notes: as for B1
B28: 111_E6 (scFv)
scFv: B1 scFv with Q108A, W109V
notes: as for B1
B29: 107_A01 scFv (6xHis/tri-Flag tags) (scFv)
scFv: B1 scFv with Q108V, W109S
notes: 7A2 derivative, only VH CDR3 changed; not shown: 6xHis/tri-FLAG tags of pSANG10-3F
B30: 110_A06 scFv (6xHis/tri-Flag tags) (scFv)
scFv: B1 scFv with W109L
notes: 7A2 derivative, only VH CDR3 changed; also called 110_A6; not shown: 6xHis/tri-FLAG tags of pSANG10-3F
B31: 107_A08 scFv (6xHis/tri-Flag tags) (scFv)
scFv: B1 scFv with Q108V, W109E
notes: as for B29
B32: 107_A07 scFv (6xHis/tri-Flag tags) (scFv)
scFv: B1 scFv with Q108M
notes: as for B29
B33: 111_D06 scFv (6xHis/tri-Flag tags) (scFv)
scFv: B1 scFv with Q108W, W109Q
notes: as for B29
B34: 110_A01 scFv (6xHis/tri-Flag tags) (scFv)
scFv: B1 scFv with G106F, M107P, Q108Y, W109L
notes: 7A2 derivative, only VH CDR3 changed; also called 110_A1; not shown: 6xHis/tri-FLAG tags of pSANG10-3F
B35: 110_A10 scFv (6xHis/tri-Flag tags) (scFv)
scFv: B1 scFv with W109T
notes: as for B29
B36: 112_G01 scFv (6xHis/tri-Flag tags) (scFv)
scFv: B1 scFv with Q108W, W109H
notes: as for B1
B37: 110_A12 scFv (6xHis/tri-Flag tags) (scFv)
scFv: B1 scFv with G106F, M107P, Q108R, W109E
notes: as for B29
B38: 7A2 Fab (His- and FLAG-tagged, hinged format) (Fab, V domains shown)
VH: QMQLVQSGAEVKKPGAPVKVSCKVSGYTFTDYYMHWVQQAPGKGLEWMGLVDPEDGETIYAEKFQGRVTITADTSTDTAYMELSSLRSEDTAVYYCATDATTPYYGMDVWGQGTLVTVSS
VL: DIQMTQSPSSLSASVGDRVTITCQASQDISNYLNWYQQKPGRAPKVLIYDASNLETGVPSRFSGSGSGTEFTLTISNLRPDDFATYYCQQGDSFPLTFGGGTKVEIK
notes: Fab from pBIOCAM7-3F in HEK293 cells, hinged format (Leu-Glu after VH), hexahistidine and tri-FLAG tags at the C-terminus of the heavy chain
B39: 107_A07 Fab (His/tri-FLAG tagged, hinged) (Fab, V domains shown)
VH: B38 VH with Y105W, D108M, V109W
VL: B38 VL
notes: Fab from pBIOCAM7-3F in HEK293 cells, hinged format (Leu-Glu after VH), hexahistidine and tri-FLAG tags on the heavy chain
B40: 107_A01 Fab (His/tri-FLAG tagged, hinged) (Fab, V domains shown)
VH: B38 VH with Y105W, D108V, V109S
VL: B38 VL
notes: Fab from pBIOCAM7-3F, hinged, hexahistidine and tri-FLAG tags on the heavy chain
B41: 110_A12 Fab (His/tri-FLAG tagged, hinged) (Fab, V domains shown)
VH: B38 VH with Y105W, G106F, M107P, D108R, V109E
VL: B38 VL
notes: as for B40
B42: 111_D06 Fab (His/tri-FLAG tagged, hinged) (Fab, V domains shown)
VH: B38 VH with Y105W, D108W, V109Q
VL: B38 VL
notes: as for B40
B43: 110_A06 Fab (His/tri-FLAG tagged, hinged) (Fab, V domains shown)
VH: B38 VH with Y105W, D108Q, V109L
VL: B38 VL
notes: as for B40
B44: 110_A10 Fab (His/tri-FLAG tagged, hinged) (Fab, V domains shown)
VH: B38 VH with Y105W, D108Q, V109T
VL: B38 VL
notes: as for B40

Biological target: T1, MET928 (cMET protein derived from construct 25-928) (human, UniProt P08581 25-928)
T1 construct: MET ectodomain, residues 1-24 are the leader; produced in Lec 8 cells; background text says the ectodomain is furin-cleaved into alpha (25-307) and beta chains; biotinylated form used in selections; also called MET928 extracellular domain; Met extracellular domain
T1 sequence (P08581 25-928): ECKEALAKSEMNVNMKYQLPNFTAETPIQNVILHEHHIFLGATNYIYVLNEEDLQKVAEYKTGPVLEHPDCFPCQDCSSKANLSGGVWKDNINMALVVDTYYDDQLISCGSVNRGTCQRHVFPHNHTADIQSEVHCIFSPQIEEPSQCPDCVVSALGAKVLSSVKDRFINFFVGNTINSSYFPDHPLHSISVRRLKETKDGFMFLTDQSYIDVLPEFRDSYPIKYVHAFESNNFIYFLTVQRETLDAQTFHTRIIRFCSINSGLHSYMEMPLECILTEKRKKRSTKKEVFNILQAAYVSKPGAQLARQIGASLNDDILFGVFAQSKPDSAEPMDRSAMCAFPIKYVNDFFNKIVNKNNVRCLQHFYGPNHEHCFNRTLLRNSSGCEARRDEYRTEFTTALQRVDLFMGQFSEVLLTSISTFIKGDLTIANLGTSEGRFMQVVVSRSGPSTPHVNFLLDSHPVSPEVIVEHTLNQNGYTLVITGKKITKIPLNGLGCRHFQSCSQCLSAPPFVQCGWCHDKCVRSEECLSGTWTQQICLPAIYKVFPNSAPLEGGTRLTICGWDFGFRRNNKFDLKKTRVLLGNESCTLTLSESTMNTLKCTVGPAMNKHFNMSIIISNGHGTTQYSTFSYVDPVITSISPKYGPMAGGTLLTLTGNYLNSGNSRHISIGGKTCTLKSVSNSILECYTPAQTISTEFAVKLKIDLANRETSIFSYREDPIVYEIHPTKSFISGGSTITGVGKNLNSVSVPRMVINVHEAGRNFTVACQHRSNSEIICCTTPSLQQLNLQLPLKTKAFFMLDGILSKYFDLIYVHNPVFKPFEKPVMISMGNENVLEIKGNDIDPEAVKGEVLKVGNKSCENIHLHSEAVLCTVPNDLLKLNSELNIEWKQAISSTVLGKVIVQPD
Experiment: ELISA, soluble scFv

binding result | Binder
binds | B1
binds | B2
binds | B3
binds | B4
binds | B5
binds | B6
binds | B7
binds | B8
binds | B9
binds | B10
binds | B11
binds | B12
binds | B13
binds | B14
binds | B15
binds | B16
binds | B17
binds | B18
binds | B19
binds | B20
binds | B21
binds | B22
binds | B23
binds | B24
binds | B25
binds | B26
binds | B27
binds | B28

Biological target: T1, MET928 (cMET protein derived from …)
Experiment: Biacore SPR, MET-928 on chip, scFv format
Description: (§1) The binding characteristics of 7A2 and its derivatives were measured using a GE Healthcare Biacore biosensor.

Kd | koff | kon | Binder
0.0652 nM | 0.00321 s⁻¹ | 4.92e+07 M⁻¹ s⁻¹ | B29
0.121 nM | 0.00417 s⁻¹ | 3.45e+07 M⁻¹ s⁻¹ | B30
0.274 nM | 0.00691 s⁻¹ | 2.52e+07 M⁻¹ s⁻¹ | B31
0.346 nM | 0.00115 s⁻¹ | 3.31e+06 M⁻¹ s⁻¹ | B32
0.183 nM | 0.00549 s⁻¹ | 3.01e+07 M⁻¹ s⁻¹ | B33
0.322 nM | 0.00163 s⁻¹ | 5.05e+06 M⁻¹ s⁻¹ | B34
0.301 nM | 0.00273 s⁻¹ | 9.08e+06 M⁻¹ s⁻¹ | B35
0.786 nM | 0.00238 s⁻¹ | 3.03e+06 M⁻¹ s⁻¹ | B36
0.958 nM | 0.00156 s⁻¹ | 1.63e+06 M⁻¹ s⁻¹ | B37

Biological target: human MET (c-Met) on cells (SKOV-3, BxPC3) (human, UniProt P08581 25-1390)
Sequence (P08581 25-1390): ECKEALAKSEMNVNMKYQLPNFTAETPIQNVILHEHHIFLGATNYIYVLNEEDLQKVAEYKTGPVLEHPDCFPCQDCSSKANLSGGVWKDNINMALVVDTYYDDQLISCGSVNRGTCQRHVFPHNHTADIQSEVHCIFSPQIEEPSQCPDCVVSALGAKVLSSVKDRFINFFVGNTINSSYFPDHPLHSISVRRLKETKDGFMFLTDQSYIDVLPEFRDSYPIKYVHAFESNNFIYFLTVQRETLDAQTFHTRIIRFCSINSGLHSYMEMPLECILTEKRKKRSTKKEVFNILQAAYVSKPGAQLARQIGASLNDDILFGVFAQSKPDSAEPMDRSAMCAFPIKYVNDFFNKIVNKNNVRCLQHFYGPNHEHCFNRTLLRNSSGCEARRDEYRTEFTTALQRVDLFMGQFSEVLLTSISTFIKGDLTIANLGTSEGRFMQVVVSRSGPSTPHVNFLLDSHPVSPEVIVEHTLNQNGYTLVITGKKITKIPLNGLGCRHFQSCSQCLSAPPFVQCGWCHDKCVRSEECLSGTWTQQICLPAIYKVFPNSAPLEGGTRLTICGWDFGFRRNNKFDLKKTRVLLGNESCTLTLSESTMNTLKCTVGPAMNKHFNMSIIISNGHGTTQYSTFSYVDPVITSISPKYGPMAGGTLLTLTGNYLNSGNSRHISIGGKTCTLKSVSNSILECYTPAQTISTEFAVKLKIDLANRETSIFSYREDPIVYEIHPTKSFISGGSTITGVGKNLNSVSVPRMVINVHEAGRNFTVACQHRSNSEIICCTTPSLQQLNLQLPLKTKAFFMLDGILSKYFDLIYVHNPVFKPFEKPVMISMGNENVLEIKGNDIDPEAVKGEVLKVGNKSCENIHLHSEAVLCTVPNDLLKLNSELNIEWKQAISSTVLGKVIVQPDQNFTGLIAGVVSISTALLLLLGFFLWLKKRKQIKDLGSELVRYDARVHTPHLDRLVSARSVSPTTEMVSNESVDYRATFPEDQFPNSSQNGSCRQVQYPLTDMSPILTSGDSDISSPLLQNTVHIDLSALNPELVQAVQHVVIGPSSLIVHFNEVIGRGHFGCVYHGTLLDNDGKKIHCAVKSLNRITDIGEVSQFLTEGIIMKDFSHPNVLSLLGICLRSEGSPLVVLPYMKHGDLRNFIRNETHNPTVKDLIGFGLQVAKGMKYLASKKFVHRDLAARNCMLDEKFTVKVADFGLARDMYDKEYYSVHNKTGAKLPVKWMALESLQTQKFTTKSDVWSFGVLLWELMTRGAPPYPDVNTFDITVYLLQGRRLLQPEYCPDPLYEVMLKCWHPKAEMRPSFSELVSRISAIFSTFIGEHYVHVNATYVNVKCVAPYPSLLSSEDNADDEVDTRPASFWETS
Experiment: cell-based or functional assay

IC50, inhibition of HGF/SF-induced migration of SKOV-3 cells, Assay 1 | IC50, inhibition of HGF/SF-induced migration of SKOV-3 cells, Assay 2 | IC50, inhibition of HGF/SF-induced migration of SKOV-3 cells, Assay 3 | Mean IC50, inhibition of HGF/SF-induced migration of SKOV-3 cells | Binder
387 nM | 493 nM | 278 nM | 386 nM | B38
9.7 nM | 9.2 nM | 3.1 nM | 7.4 nM | B39
9.7 nM |  | 11.4 nM | 10.6 nM | B40

Biological target: T1, MET928 (cMET protein derived from …)
Experiment: Biacore SPR, MET-928 on chip, Fab format
Description: as §1

Kd | koff | kon | Binder
77.3 nM | 0.0882 s⁻¹ | 1.14e+06 M⁻¹ s⁻¹ | B38
2.79 nM | 0.00161 s⁻¹ | 577000 M⁻¹ s⁻¹ | B41
2.29 nM | 0.00197 s⁻¹ | 860000 M⁻¹ s⁻¹ | B42
1.23 nM | 0.00116 s⁻¹ | 949000 M⁻¹ s⁻¹ | B39
1.43 nM | 0.00123 s⁻¹ | 863000 M⁻¹ s⁻¹ | B40
1.9 nM | 0.00128 s⁻¹ | 677000 M⁻¹ s⁻¹ | B43
2.23 nM | 0.00168 s⁻¹ | 756000 M⁻¹ s⁻¹ | B44
